Article PMC12569377, “P-Rex1 limits the agonist-induced internalization of GPCRs independently of its Rac-GEF activity” (Cell Reports, 2025)
Blank lines part the entries; values can stand above or below the molecule they belong to.

Key:
GST-Grk2 = biological target: T1, GST-Grk2 (Homo sapiens, UniProt P25098); assay: ADP-Glo kinase assay with tubulin; type: biochemical; details: […] ATP, […] pig brain tubulin, […] MgCl2, pH […] °C; no P-Rex1
T1 construct: recombinant GST fusion from Sf9 cells, commercial
T1 sequence (P25098 1-689): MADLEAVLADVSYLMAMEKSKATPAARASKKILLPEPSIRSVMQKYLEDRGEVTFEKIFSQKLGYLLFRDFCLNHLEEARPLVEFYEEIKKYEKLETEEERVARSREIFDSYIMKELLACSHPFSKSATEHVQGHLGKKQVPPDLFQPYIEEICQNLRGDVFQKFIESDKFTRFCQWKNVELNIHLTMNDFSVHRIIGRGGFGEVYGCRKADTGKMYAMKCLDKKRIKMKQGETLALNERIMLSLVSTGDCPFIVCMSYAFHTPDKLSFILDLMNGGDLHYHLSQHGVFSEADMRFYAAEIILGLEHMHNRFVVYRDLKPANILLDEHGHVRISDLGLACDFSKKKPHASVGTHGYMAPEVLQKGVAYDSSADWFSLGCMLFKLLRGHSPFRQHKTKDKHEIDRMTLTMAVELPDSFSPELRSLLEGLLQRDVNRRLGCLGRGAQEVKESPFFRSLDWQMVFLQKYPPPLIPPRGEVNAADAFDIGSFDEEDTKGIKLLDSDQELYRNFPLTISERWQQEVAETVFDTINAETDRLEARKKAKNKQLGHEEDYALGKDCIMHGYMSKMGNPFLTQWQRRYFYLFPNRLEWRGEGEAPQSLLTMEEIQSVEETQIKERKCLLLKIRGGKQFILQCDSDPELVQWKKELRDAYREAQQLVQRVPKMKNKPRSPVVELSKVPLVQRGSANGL

[1] = biological target: T2, Recombinant human wild type His-P-Rex2 (human, UniProt Q70Z35 1-1606); assay: pull-down; 5 pmol P-Rex1 or P-Rex2 protein (2.5 pmol for P-Rex1 mutants) with 5 pmol GST, GST-Grk2 or GST-Grk5 in 20 μL detergent-free buffer (50 mM HEPES pH 7.2, 150 mM NaCl), 1 h on ice; GST proteins isolated on magnetic glutathione agarose, 45 min at 4°C, 4 washes in lysis buffer 2 (1% NP-40); western blot with P-Rex1 or P-Rex2 and GST antibodies; details: both partners purified
T2 construct: source: baculovirus-infected Sf9 cells, purified (Ni-NTA agarose, PD-10 desalting); not shown: 6His, N-terminal, kept

[2] = biological target: T3, GEF-dead EE-P-Rex1 (E56A, N238A) (human, UniProt Q8TCU6 1-1659, E56A | N238A); assay: as above; details: both partners purified
T3 construct: P-Rex1, human, with point mutations E56A and N238A in the DH domain that abolish Rac-GEF activity; also called GEF-dead P-Rex1; source: baculovirus-infected Sf9 cells, purified using the EE tag

[3] = biological target: T4, GEF-dead His-P-Rex2 (P-Rex2 E30A,N212A) (human, UniProt Q70Z35 1-1606, E30A | N212A); assay: as above; details: both partners purified
T4 construct: P-Rex2, human, with alanine mutations at Glu30 and Asn212 in the catalytic DH domain; also called GEF-dead P-Rex2; source: baculovirus-infected Sf9 cells, purified (Ni-NTA agarose, PD-10 desalting); not shown: 6His, N-terminal, kept

[4] = biological target: T5, Recombinant human wild type EE-P-Rex1 (human, UniProt Q8TCU6 1-1659); assay: pull-down; as the GST-Grk2 pull-down of EE-P-Rex1, with increasing concentrations of prenylated EE-Gβ1γ2 (up to 20 pmol per sample) added during the binding assay; 0.008% cholate in all samples; details: both partners purified
T5 construct: source: baculovirus-infected Sf9 cells, purified using the EE tag
T5 sequence (Q8TCU6 whole entry): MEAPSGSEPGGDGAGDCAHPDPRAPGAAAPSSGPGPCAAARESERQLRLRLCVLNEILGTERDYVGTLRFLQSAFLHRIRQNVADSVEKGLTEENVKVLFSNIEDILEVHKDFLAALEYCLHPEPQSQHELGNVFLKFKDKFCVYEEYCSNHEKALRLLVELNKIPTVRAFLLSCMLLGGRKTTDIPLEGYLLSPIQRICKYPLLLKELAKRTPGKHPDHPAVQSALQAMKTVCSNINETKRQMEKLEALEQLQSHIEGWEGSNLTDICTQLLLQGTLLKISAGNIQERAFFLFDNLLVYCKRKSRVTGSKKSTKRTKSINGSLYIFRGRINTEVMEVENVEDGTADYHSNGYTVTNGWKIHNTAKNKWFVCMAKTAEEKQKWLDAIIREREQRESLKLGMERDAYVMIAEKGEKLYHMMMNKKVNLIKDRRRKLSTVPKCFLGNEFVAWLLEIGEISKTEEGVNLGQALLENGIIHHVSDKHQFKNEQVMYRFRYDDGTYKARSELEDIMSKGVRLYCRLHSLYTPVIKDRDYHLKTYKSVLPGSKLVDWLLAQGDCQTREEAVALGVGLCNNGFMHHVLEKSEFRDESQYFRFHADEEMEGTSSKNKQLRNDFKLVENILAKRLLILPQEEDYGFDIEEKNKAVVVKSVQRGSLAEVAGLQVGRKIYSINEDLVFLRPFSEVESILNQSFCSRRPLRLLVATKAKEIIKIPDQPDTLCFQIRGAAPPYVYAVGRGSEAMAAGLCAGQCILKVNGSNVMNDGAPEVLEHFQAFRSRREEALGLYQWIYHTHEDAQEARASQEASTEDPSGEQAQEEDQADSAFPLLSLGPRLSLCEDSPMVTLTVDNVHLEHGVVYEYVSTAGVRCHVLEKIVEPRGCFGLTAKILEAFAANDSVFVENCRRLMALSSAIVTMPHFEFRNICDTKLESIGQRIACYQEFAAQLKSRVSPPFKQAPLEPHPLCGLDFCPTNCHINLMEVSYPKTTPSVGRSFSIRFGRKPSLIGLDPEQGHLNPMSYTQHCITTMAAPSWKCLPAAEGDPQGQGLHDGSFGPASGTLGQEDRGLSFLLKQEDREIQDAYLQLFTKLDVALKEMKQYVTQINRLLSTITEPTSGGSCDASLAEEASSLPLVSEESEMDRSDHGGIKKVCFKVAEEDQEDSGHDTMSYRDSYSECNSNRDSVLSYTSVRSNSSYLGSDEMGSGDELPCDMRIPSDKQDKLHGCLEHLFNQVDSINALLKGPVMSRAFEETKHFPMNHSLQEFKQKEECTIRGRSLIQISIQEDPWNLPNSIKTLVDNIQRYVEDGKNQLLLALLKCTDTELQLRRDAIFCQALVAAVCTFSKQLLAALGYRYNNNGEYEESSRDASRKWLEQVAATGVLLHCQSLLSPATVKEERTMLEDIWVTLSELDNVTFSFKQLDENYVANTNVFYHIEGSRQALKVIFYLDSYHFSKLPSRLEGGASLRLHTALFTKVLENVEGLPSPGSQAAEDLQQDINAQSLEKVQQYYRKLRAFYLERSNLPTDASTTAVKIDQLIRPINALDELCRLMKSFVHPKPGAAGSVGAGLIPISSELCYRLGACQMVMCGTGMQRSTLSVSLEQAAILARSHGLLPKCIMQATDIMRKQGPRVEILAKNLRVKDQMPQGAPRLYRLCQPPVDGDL

T2 sequence (Q70Z35 whole entry): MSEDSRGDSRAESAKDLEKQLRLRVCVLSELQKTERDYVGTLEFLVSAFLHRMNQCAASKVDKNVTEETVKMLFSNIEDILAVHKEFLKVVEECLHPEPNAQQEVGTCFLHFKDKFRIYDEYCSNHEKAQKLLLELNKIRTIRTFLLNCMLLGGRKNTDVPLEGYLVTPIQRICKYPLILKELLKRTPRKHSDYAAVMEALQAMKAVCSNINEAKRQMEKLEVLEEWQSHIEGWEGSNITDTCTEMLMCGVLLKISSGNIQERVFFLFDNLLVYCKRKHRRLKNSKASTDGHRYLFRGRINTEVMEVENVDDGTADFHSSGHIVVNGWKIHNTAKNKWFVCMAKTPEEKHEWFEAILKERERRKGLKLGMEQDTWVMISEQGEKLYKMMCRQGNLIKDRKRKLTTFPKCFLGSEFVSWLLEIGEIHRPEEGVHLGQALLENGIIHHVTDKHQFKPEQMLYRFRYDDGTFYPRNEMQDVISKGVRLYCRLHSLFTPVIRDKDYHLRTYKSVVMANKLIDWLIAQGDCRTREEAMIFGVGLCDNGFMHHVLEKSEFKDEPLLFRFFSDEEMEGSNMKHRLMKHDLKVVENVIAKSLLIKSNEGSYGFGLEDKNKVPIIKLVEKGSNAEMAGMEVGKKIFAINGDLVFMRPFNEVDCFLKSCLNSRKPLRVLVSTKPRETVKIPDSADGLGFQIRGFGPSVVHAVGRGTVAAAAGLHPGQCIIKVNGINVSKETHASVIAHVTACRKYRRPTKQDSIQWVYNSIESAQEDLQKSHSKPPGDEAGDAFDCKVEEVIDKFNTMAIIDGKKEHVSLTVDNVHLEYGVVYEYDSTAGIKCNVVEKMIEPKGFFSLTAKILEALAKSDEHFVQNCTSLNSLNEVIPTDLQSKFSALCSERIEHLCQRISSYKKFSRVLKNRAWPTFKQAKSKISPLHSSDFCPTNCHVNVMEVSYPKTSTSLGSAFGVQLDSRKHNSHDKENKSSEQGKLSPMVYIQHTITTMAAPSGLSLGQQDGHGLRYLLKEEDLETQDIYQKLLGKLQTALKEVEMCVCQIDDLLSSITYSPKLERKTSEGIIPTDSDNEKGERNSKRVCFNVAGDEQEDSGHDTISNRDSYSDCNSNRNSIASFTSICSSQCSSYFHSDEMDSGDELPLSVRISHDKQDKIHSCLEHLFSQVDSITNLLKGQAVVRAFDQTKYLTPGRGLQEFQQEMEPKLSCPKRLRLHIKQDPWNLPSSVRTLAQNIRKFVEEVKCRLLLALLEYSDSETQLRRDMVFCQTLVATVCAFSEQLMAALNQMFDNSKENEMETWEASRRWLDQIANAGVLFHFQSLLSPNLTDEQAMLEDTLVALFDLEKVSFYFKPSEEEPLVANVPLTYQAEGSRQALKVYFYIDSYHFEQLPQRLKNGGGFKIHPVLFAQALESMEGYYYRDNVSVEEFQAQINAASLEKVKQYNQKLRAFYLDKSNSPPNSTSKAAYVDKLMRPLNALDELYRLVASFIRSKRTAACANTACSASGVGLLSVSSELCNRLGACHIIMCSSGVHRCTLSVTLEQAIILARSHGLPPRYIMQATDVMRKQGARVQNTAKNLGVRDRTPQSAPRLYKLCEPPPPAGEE
T4 sequence (Q70Z35 whole entry E30A/N212A, the tested form may be a part): as the sequence (Q70Z35 whole entry) above, with E30A, N212A counted along it
T3 sequence (Q8TCU6 whole entry E56A/N238A, the tested form may be a part): as the sequence (Q8TCU6 whole entry) above, with E56A, N238A counted along it

Molecule: Nc1ncnc2c1ncn2[C@@H]1O[C@H](COP(=O)(O)OP(=O)(O)OP(=O)(O)O)[C@@H](O)[C@H]1O [ATP]
ADP-Glo kinase assay with tubulin (GST-Grk2): GST-Grk2 was able to phosphorylate tubulin

binding result [1]: binds | binding result [2]: binds | binding result [3]: binds | binding result [4]: binds
B1: Recombinant human GST-Grk2 (enzyme, UniProt P25098 1-689, looked up)
chain: T1 sequence (P25098 1-689)
notes: G protein-coupled receptor kinase 2 (Grk2), human, Sf9 cell-derived recombinant GST fusion; also called G protein-coupled receptor kinase 2; source: bought: Abcam (ab125620), Sf9 cell-derived, purified recombinant
